This test has as its target T1, Ubiquitin-H4 fusion construct (UniProt P0CG48 1-76; P62805 1-103, limits assumed).
T1 construct: Linear fusion used as control bait for pull-down/mass spectrometry; a single ubiquitin unit is meant; also called Ub-H4; Ubquitin-H4
Put plainly: pull-down with fusion construct, mass spectrometry.

Procedure: A search for potential histone H4 ufmylation readers was performed. […] Next, an immunopreciptation assay was performed with STK38 antibody.

B1: serine/threonine kinase 38 (STK38) (enzyme)
chain: not shown
notes: Endogenous protein from cell lysates (pull-down/mass spectrometry, immunoprecipitation with STK38 antibody); also called NDR1
B1: the binding result is recorded as “no binding”.
